Broadly, the Kd is the constant that tells how readily two partners part at equilibrium. Broadly, the stoichiometry N is the number of molecules, sites or subunits per partner or assembly.

Numbering of substitutions follows the chain as printed. Numbers in names are those of the source. Like-named read-outs stand apart in the source and are kept apart here.

The results in this text go back to PMC1920236 (Nucleic Acids Research, 2007).

Data set [1] concerns the target T1, IRF-3 5D (UniProt Q14653 1-427, S396D;S398D;S402D;T404D;S405D).
T1 sequence: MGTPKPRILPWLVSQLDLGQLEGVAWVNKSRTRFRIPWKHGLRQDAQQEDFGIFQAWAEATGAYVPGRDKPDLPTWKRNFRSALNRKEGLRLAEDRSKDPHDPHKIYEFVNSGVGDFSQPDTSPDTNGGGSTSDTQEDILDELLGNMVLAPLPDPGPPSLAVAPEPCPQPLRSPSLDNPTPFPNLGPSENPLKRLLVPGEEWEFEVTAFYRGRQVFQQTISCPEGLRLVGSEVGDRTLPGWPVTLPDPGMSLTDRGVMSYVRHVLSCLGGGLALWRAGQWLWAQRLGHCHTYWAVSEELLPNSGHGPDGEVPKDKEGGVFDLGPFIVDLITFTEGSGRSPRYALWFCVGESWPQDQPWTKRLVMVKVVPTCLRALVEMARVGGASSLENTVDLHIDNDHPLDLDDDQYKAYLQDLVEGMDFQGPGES
As to the kind of experiment: fluorescence anisotropy. For orientation: In fluorescence polarisation assays a small probe gives low polarisation when free and higher when bound to something large.

The target in the next data set is T2, IRF-3 2D (UniProt Q14653 1-427, S396D;S398D).
T2 sequence: T1 sequence with D402S, D404T, D405S
As to the kind of experiment: fluorescence anisotropy.

For a further data set, the target named is T3, IRF-3 WT (UniProt Q14653 1-427).
T3 sequence: T1 sequence with D396S, D398S, D402S, D404T, D405S
As to the kind of experiment: fluorescence anisotropy.

The data set “native gel or EMSA” deals with the molecule itself. Kind of data set: native gel or EMSA. (Mobility shift assays separate free from complexed probe on a gel.)
The target of data set [2] is T1, IRF-3 5D. Kind of data set: fluorescence anisotropy. This is another data set of the same source.

B1: PRDIII-PRDI 26-bp (dsDNA)
DNA 1: GCGAACTGAAAGGGAGAAGTGAAAGT
DNA 2: ACTTTCACTTCTCCCTTTCAGTTCGC
Turning to B1, the Kd in the data set with IRF-3 5D [1] is 5.8 ± 0.8 nM; with IRF-3 2D, 1300 ± 15 nM; with IRF-3 WT, 1230 ± 15 nM.

B2: IRF-3 5D phosphomimetic mutant (S396D, S398D, S402D, T404D and S405D) (natural protein)
chain: T1 sequence
For B2, in “native gel or EMSA”, the “stoichiometry N” value worked out at 2.

B3: PRDI 13-bp (dsDNA)
DNA 1: GAGAAGTGAAAGT
DNA 2: ACTTTCACTTCTC
On to B3, for which the figures for the Kd with IRF-3 5D [2], with IRF-3 2D and with IRF-3 WT were 1200 ± 20 nM, 900 ± 15 nM and 800 ± 17 nM, respectively.
